Source: patent publication US7563610 (Takeda / Millennium, dated 2009)

Biological target: the molecule itself
Test: X-ray crystal structure (homodimer in the asymmetric unit)

B1: IspA (farnesyl pyrophosphate synthase) from E. coli, full length with non-cleavable N-terminal six histidine tag (enzyme)
chain: MGSDKIIHHHHHHTLMDFPQQLEACVKQANQALSRFIAPLPFQNTPVVETMQYGALLGGKRLRPFLVYATGHMFGVSTNTLDAPAAAVECIHAYSLIHDDLPAMDDDDLRRGLPTCHVKFGEANAILAGDALQTLAFSILSDADMPEVSDRDRISMISELASASGIAGMCGGQALDLDAEGKHVPLDALERIHRHKTGALIRAAVRLGALSAGDKGRRALPVLDKYAESIGLAFQVQDDILDVVGDTATLGKRQGADQQLGKSTYPALLGLEQARKKARDLIDDARQSLKQLAEQSLDTSALEALADYIIQRNK
notes: Two copies form the dimer in the crystal; also called FPPS
Does B1 bind?
Result: binds
